In patent US20230157952A1, “METHOD FOR IMPROVING THE STABILITY OF A PHARMACEUTICAL COMPOSITION COMPRISING A HIGH PENETRATION DRUG, AND THE PHARMACEUTICAL COMPOSITION OBTAINED THEREFROM” (Techfields Inc., priority 2020, published 2023):
Non-standard residues stand in square brackets, D forms with d. *: point of attachment. Arg(NO2) = N=C(NCCC[C@H](N)C(=O)O)N[N+](=O)[O-]; OiPr = CC(C)O*

Columns and labels:
[1] = Stability of the pure HPDs (dry solid) at 25° C./RH 60%; assay type: physicochemical; conditions: pure HPD, 25° C./RH 60%
[2] = Effect of concentration on the stability of the solution (purity over time); conditions: 1 equivalent sodium acetate in 50% ethanol at 25° C.
[3] = Effect of pH value on the stability of the solution (purity); assay type: physicochemical; conditions: for Purity(%) at day 1 / Purity(%) at day 30 / Purity(%) at day 90 / Purity(%) at day 180 / Purity(%) at day 360: 5% solution
[4] = 25% ethanol (after multiple recrystalization), pH 3.7, 25° C.
[5] = 25% ethanol with 0.5 equivalent sodium acetate, pH 3.7, 25° C.
[6] = 25% ethanol with 1 equivalent sodium acetate, pH 4.6, 25° C.
[7] = 25% ethanol with 1.5 equivalent sodium acetate, pH 5.6, 25° C.
[8] = 25% ethanol with HCl, pH 1.0, 25° C.
[9] = 25% ethanol with HCl, pH 2.0, 25° C.
[10] = 25% ethanol with NaOH, pH 7, 25° C.
[11] = 25% ethanol with NaOH, pH 8, 25° C.

CCN(CC)CCOC(=O)[C@@H](C)c1ccc(-c2ccccc2)c(F)c1.Cl [B-1-2, 2-(diethylamino)ethyl (S)-2-(2-fluoro-4-biphenyl)propionate•HCl salt]
Purity ([1]; 3 month): 98.6 ± 0.1 | Purity ([1]; Day 0): 98.7 ± 0.2

CCN(CC)CCOC(=O)[C@H](C)c1ccc(-c2ccccc2)c(F)c1.Cl [B-1-3, 2-(diethylamino)ethyl (R)-2-(2-fluoro-4-biphenyl)propionate•HCl salt]
Purity ([1]; 18 month): 98.1 ± 0.2 | Purity ([1]; 24 month): 98.0 ± 0.1

H-Ala-Pro-Gly-Pro-Arg(NO2)—OCH2CH3•HCl (H-APGP[Arg(NO2)]-OEt; also: HCl salt)
Purity at Day 30 ([2]; 0.01 wt %): 55.6% | Purity at Day 90 ([2]; 0.01 wt %): 21.3% | Purity at Day 180 ([2]; 0.01 wt %): 0% | Purity at day 0 ([2]; 0.01 wt %): 98.3% | Purity at Day 30 ([2]; 0.1 wt %): 65.7% | Purity at Day 90 ([2]; 0.1 wt %): 30.2% | Purity at Day 180 ([2]; 0.1 wt %): 8.6% | Purity at day 0 ([2]; 0.1 wt %): 98.4% | Purity at Day 30 ([2]; 1 wt %): 91.3% | Purity at Day 90 ([2]; 1 wt %): 75.9% | Purity at Day 180 ([2]; 1 wt %): 56.6% | Purity at day 0 ([2]; 1 wt %): 98.5% | Purity at Day 30 ([2]; 3 wt %): 96.8% | Purity at Day 90 ([2]; 3 wt %): 92.1% | Purity at Day 180 ([2]; 3 wt %): 85.8% | Purity at day 0 ([2]; 3 wt %): 98.8% | Purity at Day 30 ([2]; 5 wt %): 97.1% | Purity at Day 90 ([2]; 5 wt %): 94.4% | Purity at Day 180 ([2]; 5 wt %): 89.7% | Purity at day 0 ([2]; 5 wt %): 98.9% | Purity at Day 30 ([2]; 7 wt %): 97.5% | Purity at Day 90 ([2]; 7 wt %): 95.0% | Purity at Day 180 ([2]; 7 wt %): 91.3% | Purity at day 0 ([2]; 7 wt %): 98.9% | Purity at Day 30 ([2]; 8 wt %): 97.6% | Purity at Day 90 ([2]; 8 wt %): 95.1% | Purity at Day 180 ([2]; 8 wt %): 91.4% | Purity at day 0 ([2]; 8 wt %): 98.8% | Purity at Day 30 ([2]; 10 wt %): 97.6% | Purity at Day 90 ([2]; 10 wt %): 95.2% | Purity at Day 180 ([2]; 10 wt %): 91.5% | Purity at day 0 ([2]; 10 wt %): 98.9% | Purity at Day 30 ([2]; 15 wt %): 97.6% | Purity at Day 90 ([2]; 15 wt %): 95.0% | Purity at Day 180 ([2]; 15 wt %): 91.4% | Purity at day 0 ([2]; 15 wt %): 98.8% | Purity at Day 30 ([2]; 20 wt %): 97.5% | Purity at Day 90 ([2]; 20 wt %): 95.1% | Purity at Day 180 ([2]; 20 wt %): 91.5% | Purity at day 0 ([2]; 20 wt %): 98.9% | Purity at Day 30 ([2]; 30 wt %): 97.6% | Purity at Day 90 ([2]; 30 wt %): 95.1% | Purity at Day 180 ([2]; 30 wt %): 91.7% | Purity at day 0 ([2]; 30 wt %): 98.9% | Purity at Day 30 ([2]; 50 wt %): 97.5% | Purity at Day 90 ([2]; 50 wt %): 95.2% | Purity at Day 180 ([2]; 50 wt %): 91.6% | Purity at day 0 ([2]; 50 wt %): 98.8% | pH at which the solution is stable ([3]; 5% solution in 25% ethanol at 25° C.): 3-6 | Time the solution can be stored at room temperature ([3]; 5% solution in 25% ethanol, pH 3-6): about 3 months

H-Val-Pro-Gly-Pro-Arg(NO2)—OCH(CH3)2•HCl salt (H-VPGP[Arg(NO2)]-OiPr; also: HCl salt)
Purity(%) at day 1 [3, 4]: 98.6 ± 0.2% | Purity(%) at day 30 [3, 4]: 98.1 ± 0.2% | Purity(%) at day 90 [3, 4]: 97.2 ± 0.1% | Purity(%) at day 180 [3, 4]: 95.4 ± 0.1% | Purity(%) at day 360 [3, 4]: 92.1 ± 0.2% | Purity(%) at day 1 [3, 5]: 98.6 ± 0.2% | Purity(%) at day 30 [3, 5]: 98.2 ± 0.1% | Purity(%) at day 90 [3, 5]: 97.1 ± 0.2% | Purity(%) at day 180 [3, 5]: 95.6 ± 0.2% | Purity(%) at day 360 [3, 5]: 92.0 ± 0.2% | Purity(%) at day 1 [3, 6]: 98.6 ± 0.2% | Purity(%) at day 30 [3, 6]: 98.2 ± 0.2% | Purity(%) at day 90 [3, 6]: 97.0 ± 0.1% | Purity(%) at day 180 [3, 6]: 95.6 ± 0.2% | Purity(%) at day 360 [3, 6]: 92.1 ± 0.2% | Purity(%) at day 1 [3, 7]: 98.5 ± 0.2% | Purity(%) at day 30 [3, 7]: 97.0 ± 0.2% | Purity(%) at day 90 [3, 7]: 93.8 ± 0.1% | Purity(%) at day 180 [3, 7]: 88.1 ± 0.2% | Purity(%) at day 360 [3, 7]: 80.1 ± 0.3% | Purity(%) at day 1 [3, 8]: 98.3 ± 0.2% | Purity(%) at day 30 [3, 8]: 85.0 ± 0.2% | Purity(%) at day 90 [3, 8]: 59.5 ± 0.2% | Purity(%) at day 180 [3, 8]: 43.5 ± 0.3% | Purity(%) at day 360 [3, 8]: 17.6 ± 0.3% | Purity(%) at day 1 [3, 9]: 98.4 ± 0.2% | Purity(%) at day 30 [3, 9]: 91.7 ± 0.2% | Purity(%) at day 90 [3, 9]: 84.7 ± 0.3% | Purity(%) at day 180 [3, 9]: 71.7 ± 0.3% | Purity(%) at day 360 [3, 9]: 52.7 ± 0.3% | Purity(%) at day 1 [3, 10]: 98.3 ± 0.3% | Purity(%) at day 30 [3, 10]: 78.1 ± 0.4% | Purity(%) at day 90 [3, 10]: 44.1 ± 0.4% | Purity(%) at day 180 [3, 10]: 25.1 ± 0.4% | Purity(%) at day 360 [3, 10]: 0% | Purity(%) at day 1 [3, 11]: 98.0 ± 0.3% | Purity(%) at day 30 [3, 11]: 56.3 ± 0.3% | Purity(%) at day 90 [3, 11]: 32.3 ± 0.4% | Purity(%) at day 180 [3, 11]: 3.9 ± 0.4% | Purity(%) at day 360 [3, 11]: 0% | Purity(%) at day 1 ([3]; 25% ethanol, pH 3.0, 25° C.): 98.5 ± 0.1% | Purity(%) at day 30 ([3]; 25% ethanol, pH 3.0, 25° C.): 97.4 ± 0.2% | Purity(%) at day 90 ([3]; 25% ethanol, pH 3.0, 25° C.): 94.7 ± 0.1% | Purity(%) at day 180 ([3]; 25% ethanol, pH 3.0, 25° C.): 90.7 ± 0.2% | Purity(%) at day 360 ([3]; 25% ethanol, pH 3.0, 25° C.): 82.7 ± 0.3%
